According to patent US20250025502A1, “COMPOSITIONS AND METHODS FOR CONTROLLING CELL SIGNALING WITH CHIMERIC RECEPTORS” (GentiBio, Inc., priority 2021, published 2025):

Test system: IL10 signaling pathway (STAT3)
Experiment: SEAP colorimetric assay in reporter cells with RISE10 constructs
Assay type: cell-based
Method: FIG. 8 provides an example of CISC signaling through the IL10 signaling pathway. Cells were treated with IL10 or rapamycin at varying doses.
The signaling activity of RISE10 constructs (FIGS. 2 and 7) was examined. InvivoGen HEK-BLUE™ IL2 reporter cells, in which production of STAT3 (from IL10 signaling) leads to release of secreted embryonic alkaline phosphatase (SEAP), were used. The reporter cells were transfected with different levels of IL10, rapamycin and the RISE10 construct with a synthetic linker, (G4S)×3 (“CISC10 RaL”), or rapamycin and the RISE10 construct with IL10 hinge domains (“CISC10 RhL”). A colorimetric enzyme assay was performed to quantify the secreted embryonic alkaline phosphatase, and the results are shown in FIG. 8.

B1: IL10: interleukin IL10 used as stimulus for comparison in the reporter assay (protein, UniProt P22301 19-178, looked up)
Interleukin-10: SPGQGTQSENSCTHFPGNLPNMLRDLRDAFSRVKTFFQMKDQLDNLLLKESLLEDFKGYLGCQALSEMIQFYLEEVMPQAENQDPDIKAHVNSLGENLKTLRLRLRRCHRFLPCENKSKAVEQVKNAFNKLQEKGIYKAMSEFDIFINYIEAYMTMKIRN
IL10 dose giving similar peak plateau (SEAP): 10 ng/mL
